# Measurements as given in the supplement of paper PMC10567573.
# ± gives the standard deviation.
# Assay: protein stability index of a GFP-peptide fusion (GPS, HEK-293T) (PSI 1-6); higher = more stable
# [1] = treatment: DMSO, c terminus: a fixed tail appended
# [2] = treatment: MLN4924 1 uM, 8 h, c terminus: a fixed tail appended
# 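Further: 24-mer peptide tiles fused after GFP, lentivirally expressed, FACS-sorted into six equal bins by GFP/DsRed ratio, decoded by Illumina sequencing, PSI is the read-weighted mean bin number.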
Sequence,protein stability index [1],protein stability index [2],"protein stability index (treatment: DMSO, c terminus: native)","protein stability index (treatment: MLN4924 1 uM, 8 h, c terminus: native)"
HLSRQKIDPLLYMTEWFMCAFSRT [TBC1D10A],2.8 ± 0.31,2.67 ± 0.55,–,–
SMKASLEGNLAETENRYCVQLSQI [KRT17],3.22 ± 0.34,3.51 ± 0.39,–,–
NSPSSPSSSAASSSSPSSSSAVV [RHOBTB2],–,–,5.31 ± 0.12,5.456 ± 0.023
EQCVSFNSHVYNGRTHQWKPLYPD [ADAMTSL2],3.26 ± 0.25,3.08 ± 0.19,–,–
GPDNLVLLNPEKYKAKSRSPGSPV [ADD1],4.47 ± 0.25,4.63 ± 0.13,–,–
TSRTQVYKPPALKKSNSPGTASSG [ZC2HC1A],4.42 ± 0.15,4.46 ± 0.17,–,–
RAQMIRNEYRKLHPVLHKEEKQHL [TRIM43],3 ± 0.37,3.73 ± 0.2,–,–
NFLTQRENTIAGANHTHTFYGHSH [C10orf62],3.1 ± 0.26,3.09 ± 0.2,–,–
LILSREASWAKPHYEFNLSRMKFR [LCOR],2.27 ± 0.18,2.11 ± 0.28,–,–
DKFKRPTPPPSPNTQTPVQPPPPP [CCDC6],5.03 ± 0.091,5.12 ± 0.16,–,–
HFRGVSLNLTRKLAQQLCTALLFL [DYRK1B],2.04 ± 0.4,2.15 ± 0.23,–,–
AANHWVLPAAEFHGLWDSLVYDVE [TRIP13],2.62 ± 0.31,2.66 ± 0.22,–,–
MNSLLIGELSPEQPSFEPTKNKEL [FADS1],4.26 ± 0.091,4.8 ± 0.21,–,–
LLYNRSNNKYSYTSNSDDNMLKNI [KCTD10],2.52 ± 0.28,2.74 ± 0.6,–,–
ILDTAGQAEFTAMRDQYMRAGEGF [RIT1],3.44 ± 0.29,3.6 ± 0.23,–,–
PLQGTDEDAVASADFSSMLSEEEK [TPD52L1],5.48 ± 0.58,5.69 ± 0.094,–,–
LGKIFDLIGLPPEDDWPRDVSLPR [CDK4],2.34 ± 0.5,2.42 ± 0.13,–,–
NFQNIPKETELPFPKQILDQNNVI [MIA2],3.54 ± 0.34,3.45 ± 0.24,–,–
SFANDRENYDIIKTYHYLYLAMLE [FEM1B],2.44 ± 1.1,2.33 ± 0.61,–,–
EQPVPPTPATPEDPAPLWGPPPAQ [EMID1],4.92 ± 0.38,5.32 ± 0.22,–,–
IQASAGVISKKAKVKVPQKTAGKE [ZNF75A],4.6 ± 0.16,4.79 ± 0.27,–,–
LNEDTIQDVVQAADLLLLTDLKTL [GAN],3.03 ± 0.31,3.16 ± 0.44,–,–
QLSELRSEMECQNQEYKMLLDIKT [KRT13],4.09 ± 0.12,4 ± 0.29,–,–

Sequence,protein stability index [1],protein stability index [2],"protein stability index (treatment: DMSO, c terminus: native)","protein stability index (treatment: MLN4924 1 uM, 8 h, c terminus: native)"
PDRVYIHPDSPATGAHWMRQPVSF [TBX6],2.45 ± 0.22,2.54 ± 0.098,–,–
APIDWIEEYTTGMADCILVNSQFT [ALG2],2.64 ± 0.25,2.81 ± 0.49,–,–
TNKFYMLDSRSTDRVLQWERIDCQ [KLHDC2],2.43 ± 0.36,2.8 ± 0.58,–,–
HNLIEQVSLGLGQPWHAVMDIESL [FBXO33],2.59 ± 0.52,2.48 ± 0.16,–,–
SHLPTRSPSFPEAPDSGRSAPYSA [TBX6],4.61 ± 0.21,4.52 ± 0.28,–,–
WDLRFRIIHETAVGMNFLHCMAPP [RIPK4],2.89 ± 0.73,2.82 ± 0.83,–,–
SYDCTVKLWDPVDGSVVRDFEHRP [WDR88],3.44 ± 0.22,3.62 ± 0.3,–,–
SFALYLAGFCMFVLSLVKKHYRLQ [CDS1],2.25 ± 0.36,2.04 ± 0.44,–,–
SRSQNTDMVQKSVSKTLPSTWSDP [CLINT1],3.87 ± 0.28,3.98 ± 0.23,–,–
HRTRLQDLRVLVSNASEDTRRLRL [SCARA5],3.29 ± 0.11,3.57 ± 0.15,–,–
LGSDDINVVTCAAGILSNLTCNNY [CTNNB1],2.27 ± 0.22,2.37 ± 0.22,–,–
DWFSGHLNFQIEHHLFPTMPRHNY [FADS1],2.15 ± 0.48,2.07 ± 0.25,–,–
MGQKLSGSLKSVEVREPALRPAKR [SPSB4],4.37 ± 0.31,4.62 ± 0.11,–,–
HNIVHVHFDATRGWLLTSGTDKVI [WDFY2],2.26 ± 0.45,2.25 ± 0.15,–,–
AKLVPMGFTTATEFHQRRSEIIQI [RAD51],2.56 ± 0.6,1.98 ± 0.12,–,–
LRRIRAESGTKGLFAGFLPRIIKA [SLC25A39],2.05 ± 0.27,2.15 ± 0.33,–,–
PTHTPRPADFSLGSLPGPGQTSGA [VENTX],4.44 ± 0.18,4.5 ± 0.2,–,–
ISVILPTVHEVDIFRCFCPVFLHS [DENND6A],3.07 ± 0.19,3 ± 0.56,–,–
SLENSLREVEARYALQMEQLNGIL [KRT18],2.15 ± 0.23,2.52 ± 0.26,–,–
QSLLQPKSSSVDSELTSLCQSVLE [SMG5],3.88 ± 0.26,3.94 ± 0.21,–,–
AFVLSSNSLKHCTELELFKATCRW [KLHL13],2.38 ± 0.55,2.23 ± 0.52,–,–
DPFDEIILFSLPPALDWDSVHVPG [PTPN9],2.55 ± 0.29,2.6 ± 0.19,–,–
LRQRRPLRPQVVTDDDGQAPEAKD [APMAP],5.43 ± 0.16,5.52 ± 0.12,–,–

Sequence,protein stability index [1],protein stability index [2],"protein stability index (treatment: DMSO, c terminus: native)","protein stability index (treatment: MLN4924 1 uM, 8 h, c terminus: native)"
LFLDLLQSYKDLCERHEKGVLHKH [SNX8],2.49 ± 0.12,2.64 ± 0.37,–,–
SGYMEGYYTFHFLYFKDKIFNVAI [FBXO3],3.36 ± 0.48,2.75 ± 0.15,–,–
KWLSCGFMLEIVTPTSLSSLSNAV [FBXO33],3.04 ± 0.57,3.57 ± 0.76,–,–
EWARALETRDWGGAQFEGEKGRAL [ZSWIM9],3.88 ± 0.3,3.9 ± 0.31,–,–
PSFHPHAGGGSQENLDNDTETDSL [DVL3],5.58 ± 0.31,5.5 ± 0.29,–,–
DKVLGTFEFDETSFWNSSHPRGWN [KLHDC2],2.93 ± 0.45,3.23 ± 0.61,–,–
DELALSLGYAASLEASVQDDAGTS [C2CD2L],5.34 ± 0.32,5.22 ± 0.21,–,–
EPNTLRAPRVRTAFTMEQVRTLEG [VENTX],3.98 ± 0.39,3.85 ± 0.21,–,–
RLKRTRLGLDDFESLKVIGRGAFG [STK38L],2.49 ± 0.22,2.7 ± 0.31,–,–
SINVLLMMHGLKPLSLVKRTDLKD [CEP70],2.6 ± 0.6,2.59 ± 0.78,–,–
ITYPPGVKEISDKISKEEMVRRLK [PDS5B],3.49 ± 0.36,3.73 ± 0.44,–,–
IRNRGYNLIYRSTRHLKRLALMIQ [TMEM192],3.02 ± 0.16,2.97 ± 0.38,–,–
CSFCKRAFPSGHLLDAHILEWHDS [ZNF511],5.19 ± 0.093,5.12 ± 0.24,–,–
QAAKLLGSMEQVSSHFLEQTLDKK [INTS4],3.78 ± 0.12,3.88 ± 0.36,–,–
METLCLRASFWLALVGCVISDNPE [EDNRA],3.25 ± 0.19,2.7 ± 0.75,–,–
VDLNRNFPDLNTYIYYNEKYGGPN [CPN1],2.64 ± 0.18,2.53 ± 0.52,–,–
TVLTRSLFLGRILSLTSSASRLLT [FANCE],2.72 ± 0.13,2.81 ± 0.2,–,–
DVLRGNDETIGFEDILNDPSQSEV [POMP],5.13 ± 0.092,5.21 ± 0.17,–,–
SGLSFITFICYVASSASAFLTAPL [CMTM3],3.15 ± 0.49,2.96 ± 0.3,–,–
SQVQVSLEDYINDRQYDSRGRFGE [HNF4A],4.01 ± 0.14,4.18 ± 0.14,–,–
RQDADAWTLYKILDSCKQLTLAQG [SMG5],2.29 ± 0.26,2.32 ± 0.083,–,–
VYCGAGVQKEHEEYMKNLLKVGGI [PCMTD2],2.75 ± 0.22,2.9 ± 0.28,–,–
KRKVDTGGFLSESKDCKPPVYLLL [MYBL2],2.01 ± 0.51,2.61 ± 0.72,–,–

Sequence,protein stability index [1],protein stability index [2],"protein stability index (treatment: DMSO, c terminus: native)","protein stability index (treatment: MLN4924 1 uM, 8 h, c terminus: native)"
EFETLYNEHKSCEEKSVKNTSIRV [CLK3],4.59 ± 0.36,4.77 ± 0.23,–,–
FPNWAMALLITLIVVATLPIPVVF [SLC6A17],3.43 ± 0.88,3.04 ± 0.33,–,–
EPFVLPASSVESTLPVLEASSWKK [FBXO34],4.57 ± 0.22,4.87 ± 0.2,–,–
LLATRIAVYLMTFLIVTVAWAAHT [TMEM175],3.5 ± 0.17,3.12 ± 0.24,–,–
QLQHEKAELEQHLEQEQEFQVNKL [CCDC6],5.35 ± 0.19,5.41 ± 0.24,–,–
KDMNFLKRYAGREEHWVGLKKEPG [CD69],3.61 ± 0.16,3.79 ± 0.21,–,–
NDIRIFLEKVLEENAQKKRFNQVL [VPS39],2.1 ± 0.24,2.27 ± 0.29,–,–
RYHNSHPLRERARKLSQGILIIRF [YJU2B],3.08 ± 0.35,2.67 ± 0.45,–,–
LVVHTGCKDFLCQFCAQRFGRKDH [PLAGL1],2.6 ± 0.34,2.98 ± 0.091,–,–
LFSNSDHQRDGTLGALHTSSKPTA [SASS6],4.36 ± 0.27,4.51 ± 0.065,–,–
CRNCINLQNEAQKRESFLKYKCLL [IQUB],2.08 ± 0.44,2.22 ± 0.26,–,–
LKDEEGKLKDLSTVTSLQVPVLKP [PPP2R2C],4.91 ± 0.17,5.02 ± 0.085,–,–
SLDTLLEAVESRGGVPGGCVLVPR [SMAD6],3.23 ± 0.17,3.23 ± 0.25,–,–
DGLPLHFFIQTVRPKDTVMCYRVR [MYORG],2.15 ± 0.43,2.24 ± 0.31,–,–
PNLSLASEDEEEYESGYAFLPDLL [SMG5],4.32 ± 0.2,4.47 ± 0.15,–,–
DLIDRGWRRSGKYVYKPVMNQTCC [ATE1],2.26 ± 0.14,2.23 ± 0.23,–,–
APEAKDGSSFSGRVFRVTFLMLAV [APMAP],3.47 ± 0.77,2.77 ± 0.75,–,–
CHFQALGCRTTHSNQEVLQSCLLV [PYCR3],2.8 ± 0.23,2.67 ± 0.54,–,–
CVRRRYSDFEWLKNELERDSKIVV [SNX12],2.7 ± 0.17,2.62 ± 0.49,–,–
LDRERAAANEQLTRAILRERICSE [CHCHD3],4.14 ± 0.23,4.1 ± 0.42,–,–
